Here are results for five molecules from patent publication US20200297837A1.

Where two headings read alike, the source gives them in different places.

The target in test [1] is T1, HLA-E*01033 on the HLA-E*01033-transfected derivative of the K562 cell line (human), P13747. Put plainly: HLA-E stabilization assay on K562/HLA-E cells, overnight 26 C, anti-HLA-E mAb staining, flow cytometry (without peptide: 1400). For orientation: In flow cytometry, cells or beads pass a laser one at a time.
Test [2] concerns the target T1, HLA-E*01033 on the ….

RIRTWKSLV (modifications not checked) [HIV-1 Pol derived peptide … (SEQ ID NO: 17)] registered an MFI in test [1] of 6580 MFI.
On the same count and under the same terms, for RMYSPVSIL (modifications not checked) [HIV-1 Gag derived peptide … (SEQ ID NO: 1)] the value was 8240 MFI.
As for PEIVIYDYM (modifications not checked) [HIV-1 Pol derived peptide … (SEQ ID NO: 16)], the MFI in test [2] turned out to be 7320 MFI.
TALSEGATP (modifications not checked) [HIV-1 Gag derived peptide … (SEQ ID NO: 3)] returned an MFI in test [1] of 8530 MFI.
VMATRRNVL (modifications not checked) [MBt derived peptide … (SEQ ID NO: 15)]: in test [2], the MFI was 7520 MFI.
